{
  "source": "patent US20250387492A1",
  "about": "“HSP90-TARGETING CONJUGATES AND FORMULATIONS THEREOF” (Fusion Pharmaceuticals Inc., priority 2018, published 2025)",
  "key": {"[1]": {"test": "Lu levels in tumor, kidney and liver of mice at 0.5 mg/kg"}, "H460 tumor model mice": {"system": "H460 tumor model mice", "test": "Biodistribution in H460 tumor model", "settings": "5 mg/kg", "from_the_text": "(§1) In other studies, biodistribution of the conjugates was studied with H460 and H69 tumor models."}, "[2]": {"test": "Biodistribution in H460 tumor model", "settings": "mouse, in vivo, 5 mg/kg, Tumor Levels, 24 h", "from_the_text": "as §1"}, "[3]": {"system": "NCI-H460 tumor-bearing mice", "test": "H460 mouse tumor and plasma pharmacokinetics", "format": "in vivo", "settings": "25 mg/kg IV, individual animals", "description": "(§2) Conjugate accumulation at 24 and 48 h in tumor and plasma of NCI-H460 tumor-bearing mice (lung cancer). Conjugate 1 was dosed at 25 mg/kg intravenously."}, "[4]": {"test": "H460 mouse tumor and plasma pharmacokinetics", "format": "in vivo", "settings": "mouse, 25 mg/kg IV, mean of 3 animals", "description": "as §2"}, "[5]": {"test": "Plasma profile in male SD rats", "format": "in vivo, rat", "settings": "5 mg/kg IV; for Vd: male, SD, iv, 5 mg/kg", "description": "Plasma profile for Conjugate 1 at 5 mg/kg dose (via IV) in male SD rats was obtained. Plasma profile for lutetium from Conjugate 1 was also measured."}, "[6]": {"test": "Biodistribution in healthy rat tissues", "format": "in vivo", "settings": "5 mg/kg, healthy rats; for level at time molar: rat", "description": "Biodistributions of the conjugates were studied. Conjugate 1 was dosed at 5 mg/kg to healthy rats. The amount of Conjugate 1 and lutetium from Conjugate 1 in rat spleen, kidney, brain, liver and bone marrow was measured."}, "[7]": {"system": "NCI-H460 tumor-bearing mice", "test": "H460 mouse tumor and plasma pharmacokinetics", "format": "in vivo", "settings": "25 mg/kg IV; 1 h; individual animals"}, "[8]": {"test": "H460 mouse tumor and plasma pharmacokinetics", "format": "in vivo", "settings": "mouse, 25 mg/kg IV, mean of 3 animals", "remark": "listed apart in the source"}, "H69 tumor model mice": {"system": "H69 tumor model mice", "test": "Biodistribution in H69 tumor model", "settings": "5 mg/kg; 24 h; H69", "from_the_text": "as §1"}, "[9]": {"test": "Biodistribution in H69 tumor model", "settings": "mouse, in vivo, 5 mg/kg, Tumor Levels, 24 h, H69, 5 mg/kg; H69", "from_the_text": "as §1"}, "[10]": {"settings": "H460 and H69 tumor models, Conjugate 1 vs Conjugate 2"}, "[11]": {"settings": "plasma, read-out: Compound 1 Conc. in NCI-H460 Mouse Plasma, Mean"}, "[12]": {"settings": "tumor, read-out: Compound 1 Conc. in NCI-H460 Mouse Tumor, Mean"}},
  "note": "“And” between values parts separate entries of the source, which are not always exact repeats. Equal entries are not always repeated. Where two headings read alike, the source gives them in different places.",
  "data": [
    {"smiles": "CCNC(=O)c1nnc(-c2cc(C(C)C)c(O)cc2O)n1-c1ccc(CN2CCN(C(=O)CN3CCN4CCN5CCN(CC3)CC(=O)[O][Lu]([O]C(=O)C5)[O]C(=O)C4)CC2)cc1", "note": "[Conjugate 1]", "values": [
      {"measurement": "Average Lu in Liver", "setting": "[1]", "result": 23.85, "unit": "% ID/g"},
      {"measurement": "Average Lu in kidney", "setting": "[1]", "result": 1.00, "unit": "% ID/g"},
      {"measurement": "Average Lu in tumor", "setting": "[1]", "result": 1.28, "unit": "% ID/g"},
      {"measurement": "Tumor:liver ratio, 24 h, H460 (1)", "setting": "H460 tumor model mice; 24 h, H460 study (1)", "result": 0.16},
      {"measurement": "Tumor:kidney ratio, 24 h, H460 (2)", "setting": "H460 tumor model mice; 24 h, H460 study (2)", "result": 1.8},
      {"measurement": "Tumor:liver ratio, 24 h, H460 (2)", "setting": "H460 tumor model mice; 24 h, H460 study (2)", "result": 1.2},
      {"measurement": "Clearance from plasma", "setting": "H460 tumor model mice; H460 and H69 tumor models", "result": "clear rapidly from plasma"},
      {"measurement": "Tumor retention (comparison)", "setting": "H460 tumor model mice; [10]", "result": "similar"},
      {"measurement": "Tumor uptake (comparison)", "setting": "H460 tumor model mice; [10]", "result": "noticeably higher than Conjugate 2"},
      {"measurement": "tumor:kidney ratio", "setting": "H460 tumor model mice; H460 tumor model", "result": "around 2"},
      {"measurement": "tumor:liver ratios", "setting": "H460 tumor model mice; at 24 h, across H460 and H69 tumor models", "result": "0.1-1"},
      {"measurement": "level at time molar at 24 h", "setting": "[2]; H460 (1), H460 study (1)", "result": 1740, "unit": "nM"},
      {"measurement": "level at time molar at 24 h", "setting": "[2]; H460 (2), H460 study (2)", "result": 2490, "unit": "nM"},
      {"measurement": "Compound 1 Conc. in NCI-H460 Mouse Plasma", "setting": "[3]; 1 h", "result": "1.07 µM and 1.04 µM and 7.98 µM"},
      {"measurement": "Compound 1 Conc. in NCI-H460 Mouse Plasma", "setting": "[3]; 24 h", "result": "0.020 μM (2×) and 0.046 μM"},
      {"measurement": "Compound 1 Conc. in NCI-H460 Mouse Tumor", "setting": "[3]; 24 h", "result": "3.85 µM and 4.01 µM and 4.26 µM"},
      {"measurement": "Compound 1 Conc. in NCI-H460 Mouse Plasma", "setting": "[3]; 48 h", "result": "0.016 µM and 0.013 µM and 0.020 µM"},
      {"measurement": "Compound 1 Conc. in NCI-H460 Mouse Tumor", "setting": "[3]; 48 h", "result": "1.95 µM and 3.09 µM and 3.10 µM"},
      {"measurement": "level at time molar at 24 h", "setting": "[4]; [11]", "result": 29, "unit": "nM"},
      {"measurement": "level at time molar at 48 h", "setting": "[4]; [11]", "result": 16, "unit": "nM"},
      {"measurement": "level at time molar at 24 h", "setting": "[4]; [12]", "result": 4040, "unit": "nM"},
      {"measurement": "level at time molar at 48 h", "setting": "[4]; [12]", "result": 2710, "unit": "nM"},
      {"measurement": "t1/2", "setting": "[5]; analyte Conjugate 1", "result": 1.45, "unit": "H"},
      {"measurement": "t1/2", "setting": "[5]; analyte Lu from Conjugate 1", "result": 0.56, "unit": "H"},
      {"measurement": "Vd", "setting": "[5]; rat, analyte Conjugate 1, read-out: Vss_obs", "result": 0.483, "unit": "L/kg"},
      {"measurement": "Vd", "setting": "[5]; rat, analyte Conjugate 1, read-out: Vz_obs", "result": 1.44, "unit": "L/kg"},
      {"measurement": "AUC(0-t)", "setting": "[5]; rat, analyte Conjugate 1", "result": 7.31, "unit": "µM·h"},
      {"measurement": "Cmax", "setting": "[5]; rat, analyte Conjugate 1", "result": 14200, "unit": "nM"},
      {"measurement": "AUC(0-inf)", "setting": "[5]; rat, analyte Conjugate 1, read-out: AUC 0-inf_obs", "result": 7.34, "unit": "µM·h"},
      {"measurement": "clearance", "setting": "[5]; rat, analyte Conjugate 1, read-out: Cl-obs", "result": 11.1, "unit": "mL/min/kg"},
      {"measurement": "Conjugate 1 Conc., Bone marrow", "setting": "[6]; individual animals A1-A3", "result": "0.063 µM and 0.664 µM and 0.838 µM"},
      {"measurement": "Conjugate 1 Conc., Kidney", "setting": "[6]; individual animals A1-A3", "result": "7.75 µM and 7.50 µM and 8.05 µM"},
      {"measurement": "Conjugate 1 Conc., Liver", "setting": "[6]; individual animals A1-A3", "result": "1.50 µM and 2.46 µM and 3.33 µM"},
      {"measurement": "Conjugate 1 Conc., Spleen", "setting": "[6]; individual animals A1-A3", "result": "0.148 µM and 0.134 µM and 0.232 µM"},
      {"measurement": "Lu from Conjugate 1 Conc., Bone marrow", "setting": "[6]; individual animals A1-A3", "result": "0.030 µM and 0.021 µM and 0.022 µM"},
      {"measurement": "Lu from Conjugate 1 Conc., Brain", "setting": "[6]; individual animals A1-A3", "result": "<BLQ"},
      {"measurement": "Lu from Conjugate 1 Conc., Kidney", "setting": "[6]; individual animals A1-A3", "result": "3.93 µM and 4.14 µM and 4.44 µM"},
      {"measurement": "Lu from Conjugate 1 Conc., Liver", "setting": "[6]; individual animals A1-A3", "result": "2.34 µM and 2.25 µM and 3.47 µM"},
      {"measurement": "Lu from Conjugate 1 Conc., Spleen", "setting": "[6]; individual animals A1-A3", "result": "0.154 µM and 0.163 µM and 0.198 µM"},
      {"measurement": "Lu from Conjugate 1 Conc., Bone marrow, Mean", "setting": "[6]; mean", "result": 0.024, "unit": "µM"},
      {"measurement": "Lu from Conjugate 1 Conc., Brain, Mean", "setting": "[6]; mean", "result": "<BLQ"},
      {"measurement": "Lu from Conjugate 1 Conc., Kidney, Mean", "setting": "[6]; mean", "result": 4.17, "unit": "µM"},
      {"measurement": "Lu from Conjugate 1 Conc., Spleen, Mean", "setting": "[6]; mean", "result": 0.172, "unit": "µM"},
      {"measurement": "level at time molar", "setting": "[6]; bone marrow, mean, read-out: Conjugate 1 Conc., Bone marrow, Mean", "result": 522, "unit": "nM"},
      {"measurement": "level at time molar", "setting": "[6]; brain, individual animals A1-A3, read-out: Conjugate 1 Conc., Brain", "result": 37, "unit": "nM"},
      {"measurement": "level at time molar", "setting": "[6]; brain, mean, read-out: Conjugate 1 Conc., Brain, Mean", "result": 49, "unit": "nM"},
      {"measurement": "level at time molar", "setting": "[6]; kidney, mean, read-out: Conjugate 1 Conc., Kidney, Mean", "result": 7770, "unit": "nM"},
      {"measurement": "level at time molar", "setting": "[6]; liver, mean, read-out: Conjugate 1 Conc., Liver, Mean", "result": 2430, "unit": "nM"},
      {"measurement": "level at time molar", "setting": "[6]; spleen, mean, read-out: Conjugate 1 Conc., Spleen, Mean", "result": 171, "unit": "nM"},
      {"measurement": "Compound 1 Conc. in NCI-H460 Mouse Tumor", "setting": "[7]", "result": "9.30 µM and 7.05 µM and 11.1 µM"},
      {"measurement": "level at time molar at 1 h", "setting": "[8]; [11]", "result": 3360, "unit": "nM"},
      {"measurement": "level at time molar at 1 h", "setting": "[8]; [12]", "result": 9130, "unit": "nM"},
      {"measurement": "Tumor:liver ratio, 24 h, H69", "setting": "H69 tumor model mice", "result": 0.18},
      {"measurement": "level at time molar at 24 h", "setting": "[9]", "result": 1610, "unit": "nM"}
    ]}
  ]
}
